Assay results as given in publication PMC9482650, “Quantitative fragmentomics allow affinity mapping of interactomes” (Nature Communications, 2022).
Numbering of substitutions follows the chain as printed.

T1: SNTB1, Q13884
T1 sequence (Q13884 107-205, limits assumed, looked up): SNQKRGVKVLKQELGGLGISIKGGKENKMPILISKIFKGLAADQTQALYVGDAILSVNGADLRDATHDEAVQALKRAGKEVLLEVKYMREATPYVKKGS

T2: PDZD2_2, O15018
T2 sequence (O15018 329-429, limits assumed, looked up): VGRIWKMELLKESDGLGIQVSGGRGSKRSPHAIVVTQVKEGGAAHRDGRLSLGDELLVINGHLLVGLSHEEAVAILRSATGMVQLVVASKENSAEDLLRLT

T3: APBA2_2, Q99767
T3 sequence (Q99767 654-744, limits assumed, looked up): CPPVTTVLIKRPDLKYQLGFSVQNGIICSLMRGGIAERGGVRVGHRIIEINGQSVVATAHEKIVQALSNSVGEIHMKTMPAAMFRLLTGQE

T4: LNX2_3, Q8N448
T4 sequence (Q8N448 463-564, limits assumed, looked up): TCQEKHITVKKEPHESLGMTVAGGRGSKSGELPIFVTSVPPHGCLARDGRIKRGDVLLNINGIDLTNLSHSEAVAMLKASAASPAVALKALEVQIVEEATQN

T5: ARHGAP21, Q5T5U3
T5 sequence (Q5T5U3 45-169, limits assumed, looked up): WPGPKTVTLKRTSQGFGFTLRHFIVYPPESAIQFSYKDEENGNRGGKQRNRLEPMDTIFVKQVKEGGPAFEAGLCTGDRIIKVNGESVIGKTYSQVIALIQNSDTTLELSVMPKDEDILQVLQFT

T6: HTRA4, P83105
T6 sequence (P83105 378-476, limits assumed, looked up): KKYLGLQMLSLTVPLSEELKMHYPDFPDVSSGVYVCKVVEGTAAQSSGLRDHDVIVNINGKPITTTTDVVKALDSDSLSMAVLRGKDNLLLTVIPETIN

T7: LIN7B, Q9HAP6
T7 sequence (Q9HAP6 88-185, limits assumed, looked up): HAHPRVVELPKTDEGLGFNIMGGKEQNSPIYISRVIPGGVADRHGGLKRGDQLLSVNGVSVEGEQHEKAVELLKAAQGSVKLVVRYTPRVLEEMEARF

T8: LIN7C, Q9NUP9
T8 sequence (Q9NUP9 88-185, limits assumed, looked up): T7 sequence (Q9HAP6 88-185, limits assumed, looked up) with A2S, D13E, V35I, V40I, Q65H, S79K, R89K, A96S

T9: PDZRN3_1, Q9UPQ7
T9 sequence (Q9UPQ7 244-349, limits assumed, looked up): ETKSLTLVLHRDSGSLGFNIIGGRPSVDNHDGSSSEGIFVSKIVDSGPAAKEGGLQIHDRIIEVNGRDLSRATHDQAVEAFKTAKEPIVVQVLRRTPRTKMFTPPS

T10: SNTG2, Q9NY99
T10 sequence (Q9NY99 68-166, limits assumed, looked up): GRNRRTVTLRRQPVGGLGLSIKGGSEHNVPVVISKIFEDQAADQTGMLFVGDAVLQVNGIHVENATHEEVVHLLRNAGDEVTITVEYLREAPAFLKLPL

T11: NHERF3_4, Q5T2W1
T11 sequence (Q5T2W1 373-468, limits assumed, looked up): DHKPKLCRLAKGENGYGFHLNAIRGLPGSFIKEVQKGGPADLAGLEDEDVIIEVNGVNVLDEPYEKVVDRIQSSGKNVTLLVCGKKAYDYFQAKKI

T12: GRIP1_4, Q9Y3R0
T12 sequence (Q9Y3R0 467-571, limits assumed, looked up): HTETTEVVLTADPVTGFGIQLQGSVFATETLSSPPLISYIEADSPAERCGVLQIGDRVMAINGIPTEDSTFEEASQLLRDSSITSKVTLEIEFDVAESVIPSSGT


Molecular target: T1, SNTB1, Q13884
Assay: holdup assay
Design: key: below the threshold = too weak to quantify, mostly under pKd 3.1 to 4
Details: plain residues with an end cap or a label only (N-terminal biotin on a linker: ado-ado)

Row | Binder | pKd
1 | RKPKPSSSCC [RAB9A, P51151] | below the threshold
2 | ETQVTAETVI [TMEM225B, P0DP42] | 4.8

Molecular target: T2, PDZD2_2, O15018
Assay: holdup assay
Design: key: below the threshold = too weak to quantify, mostly under pKd 3.1 to 4
Details: plain residues with an end cap or a label only (N-terminal biotin on a linker: ado-ado)

Row | Binder | pKd
3 | RKPKPSSSCC [RAB9A, P51151] | 4.35
4 | ETQVTAETVI [TMEM225B, P0DP42] | 3.92

Molecular target: Inadl_3, Q8NI35
Sequence (Q8NI35 359-469): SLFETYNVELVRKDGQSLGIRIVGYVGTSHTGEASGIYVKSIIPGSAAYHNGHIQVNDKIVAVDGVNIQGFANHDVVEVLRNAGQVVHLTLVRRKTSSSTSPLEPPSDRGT
Assay: holdup assay
Design: key: below the threshold = too weak to quantify, mostly under pKd 3.1 to 4
Details: plain residues with an end cap or a label only (N-terminal biotin on a linker: ado-ado)

Row | Binder | pKd
5 | RKPKPSSSCC [RAB9A, P51151] | below the threshold
6 | ETQVTAETVI [TMEM225B, P0DP42] | 4.26

Molecular target: T3, APBA2_2, Q99767
Assay: holdup assay
Design: key: below the threshold = too weak to quantify, mostly under pKd 3.1 to 4
Details: plain residues with an end cap or a label only (N-terminal biotin on a linker: ado-ado)

Row | Binder | pKd
7 | RKPKPSSSCC [RAB9A, P51151] | below the threshold
8 | ETQVTAETVI [TMEM225B, P0DP42] | below the threshold

Molecular target: DLG1_3, Q12959
Sequence (Q12959 457-571): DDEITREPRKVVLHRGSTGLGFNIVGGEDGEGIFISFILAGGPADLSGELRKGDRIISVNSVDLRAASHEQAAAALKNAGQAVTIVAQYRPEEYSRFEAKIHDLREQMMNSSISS
Assay: holdup assay
Design: key: below the threshold = too weak to quantify, mostly under pKd 3.1 to 4
Details: plain residues with an end cap or a label only (N-terminal biotin on a linker: ado-ado)

Row | Binder | pKd
9 | RKPKPSSSCC [RAB9A, P51151] | below the threshold
10 | ETQVTAETVI [TMEM225B, P0DP42] | below the threshold

Molecular target: T4, LNX2_3, Q8N448
Assay: holdup assay
Design: key: below the threshold = too weak to quantify, mostly under pKd 3.1 to 4
Details: plain residues with an end cap or a label only (N-terminal biotin on a linker: ado-ado)

Row | Binder | pKd
11 | RKPKPSSSCC [RAB9A, P51151] | below the threshold
12 | ETQVTAETVI [TMEM225B, P0DP42] | below the threshold

Molecular target: T5, ARHGAP21, Q5T5U3
Assay: holdup assay
Design: key: below the threshold = too weak to quantify, mostly under pKd 3.1 to 4
Details: plain residues with an end cap or a label only (N-terminal biotin on a linker: ado-ado)

Row | Binder | pKd
13 | RKPKPSSSCC [RAB9A, P51151] | below the threshold
14 | ETQVTAETVI [TMEM225B, P0DP42] | below the threshold

Molecular target: DLG1_2, Q12959
Sequence (Q12959 314-412): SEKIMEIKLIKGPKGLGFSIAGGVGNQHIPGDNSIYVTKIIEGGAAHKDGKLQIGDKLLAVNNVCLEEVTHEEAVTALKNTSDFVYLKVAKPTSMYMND
Assay: holdup assay
Design: key: below the threshold = too weak to quantify, mostly under pKd 3.1 to 4
Details: plain residues with an end cap or a label only (N-terminal biotin on a linker: ado-ado)

Row | Binder | pKd
15 | RKPKPSSSCC [RAB9A, P51151] | below the threshold
16 | ETQVTAETVI [TMEM225B, P0DP42] | 4.37

Molecular target: TJP1_3, Q07157
Sequence (Q07157 416-512): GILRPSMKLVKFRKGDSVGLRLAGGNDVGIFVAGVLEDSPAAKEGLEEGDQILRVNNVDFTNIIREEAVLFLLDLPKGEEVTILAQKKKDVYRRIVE
Assay: holdup assay
Design: key: below the threshold = too weak to quantify, mostly under pKd 3.1 to 4
Details: plain residues with an end cap or a label only (N-terminal biotin on a linker: ado-ado)

Row | Binder | pKd
17 | RKPKPSSSCC [RAB9A, P51151] | below the threshold
18 | ETQVTAETVI [TMEM225B, P0DP42] | below the threshold

Molecular target: T6, HTRA4, P83105
Assay: holdup assay
Design: key: below the threshold = too weak to quantify, mostly under pKd 3.1 to 4
Details: plain residues with an end cap or a label only (N-terminal biotin on a linker: ado-ado)

Row | Binder | pKd
19 | RKPKPSSSCC [RAB9A, P51151] | below the threshold
20 | ETQVTAETVI [TMEM225B, P0DP42] | below the threshold

Molecular target: T7, LIN7B, Q9HAP6
Assay: holdup assay
Design: key: below the threshold = too weak to quantify, mostly under pKd 3.1 to 4
Details: plain residues with an end cap or a label only (N-terminal biotin on a linker: ado-ado)

Row | Binder | pKd
21 | RKPKPSSSCC [RAB9A, P51151] | 3.75
22 | ETQVTAETVI [TMEM225B, P0DP42] | below the threshold

Molecular target: IL16_4, Q14005
Sequence (Q14005 1229-1329): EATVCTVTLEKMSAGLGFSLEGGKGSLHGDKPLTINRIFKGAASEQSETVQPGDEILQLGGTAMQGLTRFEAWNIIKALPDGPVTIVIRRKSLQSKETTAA
Assay: holdup assay
Design: key: below the threshold = too weak to quantify, mostly under pKd 3.1 to 4
Details: plain residues with an end cap or a label only (N-terminal biotin on a linker: ado-ado)

Row | Binder | pKd
23 | RKPKPSSSCC [RAB9A, P51151] | below the threshold
24 | ETQVTAETVI [TMEM225B, P0DP42] | below the threshold

Molecular target: MAGI2_4, Q86UL8
Sequence (Q86UL8 772-865): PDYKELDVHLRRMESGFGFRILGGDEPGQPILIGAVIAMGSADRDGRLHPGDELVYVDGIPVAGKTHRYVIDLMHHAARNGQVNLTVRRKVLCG
Assay: holdup assay
Design: key: below the threshold = too weak to quantify, mostly under pKd 3.1 to 4
Details: plain residues with an end cap or a label only (N-terminal biotin on a linker: ado-ado)

Row | Binder | pKd
25 | RKPKPSSSCC [RAB9A, P51151] | below the threshold
26 | ETQVTAETVI [TMEM225B, P0DP42] | below the threshold

Molecular target: T8, LIN7C, Q9NUP9
Assay: holdup assay
Design: key: below the threshold = too weak to quantify, mostly under pKd 3.1 to 4
Details: plain residues with an end cap or a label only (N-terminal biotin on a linker: ado-ado)

Row | Binder | pKd
27 | RKPKPSSSCC [RAB9A, P51151] | 3.69
28 | ETQVTAETVI [TMEM225B, P0DP42] | 4.07

Molecular target: DLG4_3, P78352
Sequence (P78352 306-403): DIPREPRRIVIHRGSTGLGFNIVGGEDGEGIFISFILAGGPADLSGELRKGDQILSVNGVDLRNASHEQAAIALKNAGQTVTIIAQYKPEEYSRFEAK
Assay: holdup assay
Design: key: below the threshold = too weak to quantify, mostly under pKd 3.1 to 4
Details: plain residues with an end cap or a label only (N-terminal biotin on a linker: ado-ado)

Row | Binder | pKd
29 | RKPKPSSSCC [RAB9A, P51151] | below the threshold
30 | ETQVTAETVI [TMEM225B, P0DP42] | below the threshold

Molecular target: Inadl_6, Q8NI35
Sequence (Q8NI35 1058-1167): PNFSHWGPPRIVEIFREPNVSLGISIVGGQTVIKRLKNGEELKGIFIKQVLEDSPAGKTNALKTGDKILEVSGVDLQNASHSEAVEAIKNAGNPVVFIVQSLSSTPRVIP
Assay: holdup assay
Design: key: below the threshold = too weak to quantify, mostly under pKd 3.1 to 4
Details: plain residues with an end cap or a label only (N-terminal biotin on a linker: ado-ado)

Row | Binder | pKd
31 | RKPKPSSSCC [RAB9A, P51151] | below the threshold
32 | ETQVTAETVI [TMEM225B, P0DP42] | below the threshold

Molecular target: LAP2, Q96RT1
Sequence (Q96RT1 other isoform, or with tags, fused parts or gaps): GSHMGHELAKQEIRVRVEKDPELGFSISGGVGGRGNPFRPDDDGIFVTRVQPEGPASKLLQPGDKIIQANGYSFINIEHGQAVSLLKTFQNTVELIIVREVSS
Assay: holdup assay
Design: key: below the threshold = too weak to quantify, mostly under pKd 3.1 to 4
Details: plain residues with an end cap or a label only (N-terminal biotin on a linker: ado-ado)

Row | Binder | pKd
33 | RKPKPSSSCC [RAB9A, P51151] | below the threshold
34 | ETQVTAETVI [TMEM225B, P0DP42] | below the threshold

Molecular target: T9, PDZRN3_1, Q9UPQ7
Assay: holdup assay
Design: key: below the threshold = too weak to quantify, mostly under pKd 3.1 to 4
Details: plain residues with an end cap or a label only (N-terminal biotin on a linker: ado-ado)

Row | Binder | pKd
35 | RKPKPSSSCC [RAB9A, P51151] | below the threshold
36 | ETQVTAETVI [TMEM225B, P0DP42] | below the threshold

Molecular target: LNX1_3, Q8TBB1
Sequence (Q8TBB1 500-596): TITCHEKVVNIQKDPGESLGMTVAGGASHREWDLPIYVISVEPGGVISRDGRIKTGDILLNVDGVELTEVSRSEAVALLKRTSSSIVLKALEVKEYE
Assay: holdup assay
Design: key: below the threshold = too weak to quantify, mostly under pKd 3.1 to 4
Details: plain residues with an end cap or a label only (N-terminal biotin on a linker: ado-ado)

Row | Binder | pKd
37 | RKPKPSSSCC [RAB9A, P51151] | below the threshold
38 | ETQVTAETVI [TMEM225B, P0DP42] | below the threshold

Molecular target: T10, SNTG2, Q9NY99
Assay: holdup assay
Design: key: below the threshold = too weak to quantify, mostly under pKd 3.1 to 4
Details: plain residues with an end cap or a label only (N-terminal biotin on a linker: ado-ado)

Row | Binder | pKd
39 | RKPKPSSSCC [RAB9A, P51151] | below the threshold
40 | ETQVTAETVI [TMEM225B, P0DP42] | 4.15

Molecular target: T11, NHERF3_4, Q5T2W1
Assay: holdup assay
Design: key: below the threshold = too weak to quantify, mostly under pKd 3.1 to 4
Details: plain residues with an end cap or a label only (N-terminal biotin on a linker: ado-ado)

Row | Binder | pKd
41 | RKPKPSSSCC [RAB9A, P51151] | below the threshold
42 | ETQVTAETVI [TMEM225B, P0DP42] | below the threshold

Molecular target: T12, GRIP1_4, Q9Y3R0
Assay: holdup assay
Design: key: below the threshold = too weak to quantify, mostly under pKd 3.1 to 4
Details: plain residues with an end cap or a label only (N-terminal biotin on a linker: ado-ado)

Row | Binder | pKd
43 | RKPKPSSSCC [RAB9A, P51151] | below the threshold
44 | ETQVTAETVI [TMEM225B, P0DP42] | below the threshold

Molecular target: LNX1_2, Q8TBB1
Sequence (Q8TBB1 371-470): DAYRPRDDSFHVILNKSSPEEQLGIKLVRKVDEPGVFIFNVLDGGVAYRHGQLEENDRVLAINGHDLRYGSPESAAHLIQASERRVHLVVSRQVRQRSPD
Assay: holdup assay
Design: key: below the threshold = too weak to quantify, mostly under pKd 3.1 to 4
Details: plain residues with an end cap or a label only (N-terminal biotin on a linker: ado-ado)

Row | Binder | pKd
45 | RKPKPSSSCC [RAB9A, P51151] | below the threshold
46 | ETQVTAETVI [TMEM225B, P0DP42] | below the threshold

Molecular target: SCRIB_2, Q14160
Sequence (Q14160 857-960): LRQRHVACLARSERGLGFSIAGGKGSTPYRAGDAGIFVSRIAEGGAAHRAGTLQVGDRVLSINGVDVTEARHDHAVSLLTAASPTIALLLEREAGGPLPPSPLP
Assay: holdup assay
Design: key: below the threshold = too weak to quantify, mostly under pKd 3.1 to 4
Details: plain residues with an end cap or a label only (N-terminal biotin on a linker: ado-ado)

Row | Binder | pKd
47 | RKPKPSSSCC [RAB9A, P51151] | below the threshold
48 | ETQVTAETVI [TMEM225B, P0DP42] | below the threshold

Molecular target: FRMPD2_1, Q68DX3
Sequence (Q68DX3 770-861): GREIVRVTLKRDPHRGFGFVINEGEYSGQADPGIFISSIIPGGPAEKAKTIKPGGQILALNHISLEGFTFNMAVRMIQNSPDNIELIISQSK
Assay: holdup assay
Design: key: below the threshold = too weak to quantify, mostly under pKd 3.1 to 4
Details: plain residues with an end cap or a label only (N-terminal biotin on a linker: ado-ado)

Row | Binder | pKd
49 | RKPKPSSSCC [RAB9A, P51151] | below the threshold
50 | ETQVTAETVI [TMEM225B, P0DP42] | below the threshold
